The record followed here is patent publication US20080181886A1 (Genentech, published 2008).

Test [1] deals with T1, Murine APRIL (mouse, UniProt Q9D777 105-241, limits assumed).
T1 sequence (looked up): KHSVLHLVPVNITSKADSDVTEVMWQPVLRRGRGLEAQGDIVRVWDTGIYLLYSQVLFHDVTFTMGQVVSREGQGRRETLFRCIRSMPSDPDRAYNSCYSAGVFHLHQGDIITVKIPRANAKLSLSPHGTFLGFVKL
In words: shotgun scan, phage display. The source says: Phage from each of the libraries described above were subjected to rounds of binding selection against APRIL, BAFF, or anti-tag antibody (3C8:2F4 Genentech, Inc.) immobilized on 96-well Nunc Maxisorp immunoplates (Sidhu, 2001). BSA-coated wells were used to determine non-specific background binding. Phage eluted from each target were propagated in E. coli XL1-Blue in the presence of M13K07 helper phage; amplified phage were used for selection against the same target in the […] round. […] Enrichment was calculated from the ratio of the phage titer eluted from the target-coated wells to the phage titer eluted from the BSA-coated wells. Individual clones from each library and selection target were then grown in a 96-well format in 400 ul of 2YT medium supplemented with carbenicillin and KO7 helper phage. […] Sequences of acceptable quality were translated and aligned. For APRIL-binding, 71, 40, and 54 sequences were analyzed from libraries one, two and three, respectively. For BAFF-binding, 70, 50, and 53 sequences were analyzed for libraries one, two and three, respectively. For the display selection, a minimum of 47 sequences were analyzed for each library. […] F values describe the effect of mutation on target binding, while accounting for differences in display efficiencies, with values >1 representing deleterious mutations and those <1 representing favorable mutations.

The target in test [2] is T1, Murine APRIL. Description: NNS library, phage display.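 Also: ligand versus display occurrence-to-degeneracy ratio and higher means enriched by binding.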 The protocol:
(§1) This new phage library was subjected to sorting against either BAFF, APRIL or the display target antibody. After 3 rounds of sorting, approximately 48 clones were picked from each selection and the DNA sequences of the phage clones were determined. […] The normalized F′ value corrects for display bias and is calculated as the percent occurrence to percent degeneracy ratio for ligand selection divided by the percent occurrence to percent degeneracy ratio for display efficiency. Percent occurrence is calculated by dividing the number of times a particular amino acid appeared at a particular position by the total number of amino acids sequenced at that position followed by multiplying by 100. Percent degeneracy is calculated by dividing the degeneracy in code for a particular amino acid divided by the total degeneracy possible at that position followed by multiplying by 100 (e.g., if only A, G and I were selected, total degeneracy possible would be 5).

Test [3] has as its target human BAFF (human, UniProt Q9Y275 82-285, limits assumed). Description: NNS library, phage display.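 Also: ligand versus display occurrence-to-degeneracy ratio and higher means enriched by binding.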 The protocol: as §1

Sequence of human BAFF (Q9Y275 82-285 limits assumed): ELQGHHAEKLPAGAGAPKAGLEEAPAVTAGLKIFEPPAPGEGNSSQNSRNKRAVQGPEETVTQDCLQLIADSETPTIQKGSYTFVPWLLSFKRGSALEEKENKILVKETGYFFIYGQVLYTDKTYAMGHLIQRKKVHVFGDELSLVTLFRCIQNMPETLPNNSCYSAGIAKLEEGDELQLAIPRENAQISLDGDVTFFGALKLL

Regarding SLSCRKEQGKFYDHLLRDCISCASICGQHPKQCAYFCANKLR (receptor, phage library variant, format as m9) [TACI_d2 E105A], the “F (APRIL)” value in test [1] is 1.7. On to SLSCRKEQGKHYDHLLRDCISCASICGQHPKQCAYFCENKLR (receptor, phage library variant, format as m9) [TACI_d2 F78H], for which the “F' APRIL” value in test [2] was 0. Further, in test [3], the “F' BAFF” value was determined as 0. With SLSCRKEQGKFYDHLLRDCISCASICGQHPKQCAYFCEDKLR (receptor, phage library variant, format as m9) [TACI_d2 N106D], the “F (APRIL)” value in test [1] was found to be 1.2. For the molecule SLSCRKEQGKNYDHLLRDCISCASICGQHPKQCAYFCENKLR (receptor, phage library variant, format as m9) [TACI_d2 F78N], the “F' APRIL” value in test [2] came to 0. For the same molecule, in test [3], the “F' BAFF” value is 0. With SLSCRKEQGKFYDHLLRDCISCASICGPHPKQCAYFCENKLR (receptor, phage library variant, format as m9) [TACI_d2 Q95P], the “F (APRIL)” value in test [1] is more than 39. In the case of SLSCRKEQGKFSDHLLRDCISCASICGQHPKQCAYFCENKLR (receptor, phage library variant, format as m9) [TACI_d2 Y79S], the “F' APRIL” value in test [2] is 0. For the same molecule, the “F (APRIL)” value in test [1] stood at 31. SLSCRKEQGKFYDHLLRDCISCASICGQHPKQCAYFCENELR (receptor, phage library variant, format as m9) [TACI_d2 K107E]: the “F (APRIL)” value in test [1] was 2.1. Same read-out and setting: then SLSCRKEQGKFYDHLLRDCISCASICGQDPKQCAYFCENKLR (receptor, phage library variant, format as m9) [TACI_d2 H96D], with more than 24; and SLSCRKEQGKFYDHLLRDCISCASICGQHPKQCASFCENKLR (receptor, phage library variant, format as m9) [TACI_d2 Y102S], with 1.5. As to SLSCRKEQGKFYDHLLGDCISCASICGQHPKQCAYFCENKLR (receptor, phage library variant, format as m9) [TACI_d2 R84G], the “F' APRIL” value in test [2] was determined as 1. The “F (APRIL)” value in test [1] was determined as 1.8.

In the case of SLSCRKEQGKIYDHLLRDCISCASICGQHPKQCAYFCENKLR (receptor, phage library variant, format as m9) [TACI_d2 F78I], the “F' APRIL” value in test [2] is 7. In test [3], the “F' BAFF” value worked out at 10. With SLSCRKEQGKFYDHLLRDCISCASICGQHAKQCAYFCENKLR (receptor, phage library variant, format as m9) [TACI_d2 P97A], in test [1], the “F (APRIL)” value is more than 20. The same measure, in the same setting: then SLSCRKEQGKFYDHLLRDCISCASICGQHPKACAYFCENKLR (receptor, phage library variant, format as m9) [TACI_d2 Q99A], with 1.9. For the molecule SLSCRKEQGKLYDHLLRDCISCASICGQHPKQCAYFCENKLR (receptor, phage library variant, format as m9) [TACI_d2 F78L], the “F' APRIL” value in test [2] is 0. Moreover, the “F' BAFF” value in test [3] was 0.

Turning to SLSCRKEQGKFYDHLARDCISCASICGQHPKQCAYFCENKLR (receptor, phage library variant, format as m9) [TACI_d2 L83A], the “F (APRIL)” value in test [1] is 31.

On to SLSCRKEQGKQYDHLLRDCISCASICGQHPKQCAYFCENKLR (receptor, phage library variant, format as m9) [TACI_d2 F78Q], for which the “F' APRIL” value in test [2] was 0. In addition, the “F' BAFF” value in test [3] turned out to be 0.

In the case of SLSCRKEQGKPYDHLLRDCISCASICGQHPKQCAYFCENKLR (receptor, phage library variant, format as m9) [TACI_d2 F78P], the “F' APRIL” value in test [2] is 0. Besides, the “F' BAFF” value in test [3] stood at 0.

Regarding SLSCRKEQGKGYDHLLRDCISCASICGQHPKQCAYFCENKLR (receptor, phage library variant, format as m9) [TACI_d2 F78G], the “F' APRIL” value in test [2] was 0. The “F' BAFF” value in test [3] was 0.

For the molecule SLSCREEQGKFYDHLLRDCISCASICGQHPKQCAYFCENKLR (receptor, phage library variant, format as m9) [TACI_d2 K73E], the “F (APRIL)” value in test [1] was 7.7. With SLSCRKEQGAFYDHLLRDCISCASICGQHPKQCAYFCENKLR (receptor, phage library variant, format as m9) [TACI_d2 K77A], the “F (APRIL)” value in test [1] was found to be 1. SLSCRKEQGKFYDHLLRDCISCASICGQAPKQCAYFCENKLR (receptor, phage library variant, format as m9) [TACI_d2 H96A]: the “F (APRIL)” value in test [1] is 12. As for SLSCRKEQAKFYDHLLRDCISCASICGQHPKQCAYFCENKLR (receptor, phage library variant, format as m9) [TACI_d2 G76A], the “F (APRIL)” value in test [1] worked out at 1.6. Same read-out and setting: next, SLSCRKEQGKFYDHLLRDCISCASICGEHPKQCAYFCENKLR (receptor, phage library variant, format as m9) [TACI_d2 Q95E]: 21; SLSCRKEQGKFYDALLRDCISCASICGQHPKQCAYFCENKLR (receptor, phage library variant, format as m9) [TACI_d2 H81A]: 2; SLSCRKEQGKFYDHLLRDCISCASICGQHPKQCAYFCENKPR (receptor, phage library variant, format as m9) [TACI_d2 L108P]: 1.4. As for SLSCRKEQGKMYDHLLRDCISCASICGQHPKQCAYFCENKLR (receptor, phage library variant, format as m9) [TACI_d2 F78M], in test [2], the “F' APRIL” value was 0. Besides, the “F' BAFF” value in test [3] amounted to 1. In the case of SLSCRKEQGKFYDDLLRDCISCASICGQHPKQCAYFCENKLR (receptor, phage library variant, format as m9) [TACI_d2 H81D], the “F (APRIL)” value in test [1] came to 0.9.

For SLSCRKEQGKEYDHLLRDCISCASICGQHPKQCAYFCENKLR (receptor, phage library variant, format as m9) [TACI_d2 F78E], the “F' APRIL” value in test [2] worked out at 0. In addition, in test [3], the “F' BAFF” value stood at 5. The matching figures for SLSCRKEQGKKYDHLLRDCISCASICGQHPKQCAYFCENKLR (receptor, phage library variant, format as m9) [TACI_d2 F78K]: 0 and 0. In the case of SLSCRKEQGKFYDHLLRDCIACASICGQHPKQCAYFCENKLR (receptor, phage library variant, format as m9) [TACI_d2 S88A], the “F (APRIL)” value in test [1] worked out at 3.8. In the case of SLSCRKEQGKFYDHLPRDCISCASICGQHPKQCAYFCENKLR (receptor, phage library variant, format as m9) [TACI_d2 L83P], in test [1], the “F (APRIL)” value is more than 20.

In the case of SLSCRKEQGKFYDHLLRDCISCASICGAHPKQCAYFCENKLR (receptor, phage library variant, format as m9) [TACI_d2 Q95A], the “F (APRIL)” value in test [1] came out at 6.6. Turning to SLSCRKEQGKFYDHLLRDCISCASICGQHPAQCAYFCENKLR (receptor, phage library variant, format as m9) [TACI_d2 K98A], in test [1], the “F (APRIL)” value was 3.5. Regarding SLSCRKEQGKRYDHLLRDCISCASICGQHPKQCAYFCENKLR (receptor, phage library variant, format as m9) [TACI_d2 F78R], the “F' APRIL” value in test [2] was found to be 0. Further, the “F' BAFF” value in test [3] was found to be 0.

On to SLSCRKEQGKDYDHLLRDCISCASICGQHPKQCAYFCENKLR (receptor, phage library variant, format as m9) [TACI_d2 F78D], for which the “F' APRIL” value in test [2] amounted to 0. Further, the “F' BAFF” value in test [3] is 0. SLSCRKEQGKFYDHLLRDCISCAAICGQHPKQCAYFCENKLR (receptor, phage library variant, format as m9) [TACI_d2 S91A]: the “F (APRIL)” value in test [1] worked out at 2.1. In the case of SLSCRKEQGKFYDHLLPDCISCASICGQHPKQCAYFCENKLR (receptor, phage library variant, format as m9) [TACI_d2 R84P], the “F' APRIL” value in test [2] was 0. Moreover, the “F (APRIL)” value in test [1] was more than 22.

Consider SLSCRKEQGKCYDHLLRDCISCASICGQHPKQCAYFCENKLR (receptor, phage library variant, format as m9) [TACI_d2 F78C], for which, in test [2], the “F' APRIL” value amounted to 0. The “F' BAFF” value in test [3] is 0. Turning to SLSCRKEQGKFYDHLLRDCISCASICGQHPEQCAYFCENKLR (receptor, phage library variant, format as m9) [TACI_d2 K98E], the “F (APRIL)” value in test [1] came to 6.9.

As to SLSCRKEQGKFYDHLLRDCISCASICGQHPKQCAYSCENKLR (receptor, phage library variant, format as m9) [TACI_d2 F103S], the “F (APRIL)” value in test [1] was determined as 5.8.
